In PMC5511259:

Target: Hd1 segment (aa112–337) between the zinc finger domain and the CCT domain (rice (Oryza sativa L.)) (UniProt Q9FDX8)
Chain of UniProt Q9FDX8 (Q9FDX8 112-337): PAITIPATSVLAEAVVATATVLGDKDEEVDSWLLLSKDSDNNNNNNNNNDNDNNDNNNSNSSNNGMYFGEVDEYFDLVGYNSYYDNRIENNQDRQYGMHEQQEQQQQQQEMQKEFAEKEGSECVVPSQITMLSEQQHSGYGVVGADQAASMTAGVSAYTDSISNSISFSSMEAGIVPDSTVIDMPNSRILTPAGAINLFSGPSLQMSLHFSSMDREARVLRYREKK

- relative LUC activity activated by GAL4-Hd1^ZS (full-length CDS of Hd1 from ZS97) in rice protoplasts with increasing dosage of 35S:Ghd7-CFP (2, 4, 10 μg); decreased from 7.0 to 0.8 (relative LUC activity): 7
Substance: Ghd7 (aa187–257) segment containing the CCT domain (from UniProt E5RQA1 187-257) (domain or fragment)
